Test results reported in patent US20230312725A1 (JIANGSU HENGRUI PHARMACEUTICALS, published 2023).

B1: h1901-11 (antibody, human IgG1, kappa, V domains shown)
VH: EVQLVESGGGLVQPGGSLRLSCAASGFTFSDYGIHWVRQAPGKGLEWIAYISRGSSTIYYADTVKGRFTISRDNAKNSLYLQMTSLRAEDTAVYYCARGGYDTRNAMDYWGQGTTVTVSS
VL: DIVMTQSPDSLAVSLGERATISCKSSQSLLNSGNQKNYLAWYQQKPGQPPKLLIYGASTRASGVPDRFSGSGSGTDFTLTISSLQAEDVAIYHCQNDLYYPLTFGQGTKLEIKR
B2: IMAB-362 (antibody, human IgG1, kappa, V domains shown)
VH: QVQLQQPGAELVRPGASVKLSCKASGYTFTSYWINWVKQRPGQGLEWIGNIYPSDSYTNYNQKFKDKATLTVDKSSSTAYMQLSSPTSEDSAVYYCTRSWRGNSFDYWGQGTTLTVSS
VL: DIVMTQSPSSLTVTAGEKVTMSCKSSQSLLNSGNQKNYLTWYQQKPGQPPKLLIYWASTRESGVPDRFTGSGSGTDFTLTISSVQAEDLAVYYCQNDYSYPFTFGSGTKLEIKR

Molecular target: human Claudin18.2 (human)
Experiment: cell-based or functional assay

| Binder | ADCC effect, IC50 (ng/ml), NUGC4 cells with high Claudin18.2 expression [ng/mL] | ADCC effect, IC50 (ng/ml), NUGC4 cells with low Claudin18.2 expression [ng/mL] | ADCC effect, IC50 (ng/ml), NUGC4 cells with moderate Claudin18.2 expression [ng/mL] |
| --- | --- | --- | --- |
| B1 | 26.2 | 22.4 | 15.3 |
| B2 | 133 | 183 | 210 |
